The source of these data is paper PMC7105311, “Structure and function of Bs164 β-mannosidase from Bacteroides salyersiae the founding member of glycoside hydrolase family GH164” (The Journal of Biological Chemistry, 2019).

In this assay the target is Bs164 β-mannosidase from Bacteroides salyersiae CL02T12C01 (His6 tag removed) (Bacteroides salyersiae CL02T12C01). The assay is described as follows: SEC-MALS; Superdex S200 10/300, 80 mM MES (pH 5.5), 200 mM NaCl, room temperature (20 ± 2 °C), 100 μl injected at 5 mg/ml. In general terms: SEC sorts molecules by how far they enter the pores of the column.

As a reminder, the stoichiometry N is a count of units in the complex or per binding partner. As for “Bs164 β-mannosidase from Bacteroides salyersiae CL02T12C01 (His6 tag removed) (enzyme)”, the stoichiometry N turned out to be 3.
